According to article PMC5054401:

Key:
[1] = anti-Flag immunofluorescence, nucleus/cytoplasm densitometry; settings: glycan lost
[2] = HeLa subcellular fractionation, anti-Flag western
[3] = OGT enzyme activity (Supplementary Fig. 5a,b); settings: glycan lost; control: WT-OGT

B1: O-GlcNAc transferase (OGT): Mono-OGT S389A (protein)
parent chain: MASSVGNVADSTGLAELAHREYQAGDFEAAERHCMQLWRQEPDNTGVLLLLSSIHFQCRRLDRSAHFSTLAIKQNPLLAEAYSNLGNVYKERGQLQEAIEHYRHALRLKPDFIDGYINLAAALVAAGDMEGAVQAYVSALQYNPDLYCVRSDLGNLLKALGRLEEAKACYLKAIETQPNFAVAWSNLGCVFNAQGEIWLAIHHFEKAVTLDPNFLDAYINLGNVLKEARIFDRAVAAYLRALSLSPNHAVVHGNLACVYYEQGLIDLAIDTYRRAIELQPHFPDAYCNLANALKEKGSVAEAEDCYNTALRLCPTHADSLNNLANIKREQGNIEEAVRLYRKALEVFPEFAAAHSNLASVLQQQGKLQEALMHYKEAIRISPTFADAYSNMGNTLKEMQDVQGALQCYTRAIQINPAFADAHSNLASIHKDSGNIPEAIASYRTALKLKPDFPDAYCNLAHCLQIVCDWTDYDERMKKLVSIVADQLEKNRLPSVHPHHSMLYPLSHGFRKAIAERHGNLCLDKINVLHKPPYEHPKDLKLSDGRLRVGYVSSDFGNHPTSHLMQSIPGMHNPDKFEVFCYALSPDDGTNFRVKVMAEANHFIDLSQIPCNGKAADRIHQDGIHILVNMNGYTKGARNELFALRPAPIQAMWLGYPGTSGALFMDYIITDQETSPAEVAEQYSEKLAYMPHTFFIGDHANMFPHLKKKAVIDFKSNGHIYDNRIVLNGIDLKAFLDSLPDVKIVKMKCPDGGDNADSSNTALNMPVIPMNTIAEAVIEMINRGQIQITINGFSISNGLATTQINNKAATGEEVPRTIIVTTRSQYGLPEDAIVYCNFNQLYKIDPSTLQMWANILKRVPNSVLWLLRFPAVGEPNIQQYAQNMGLPQNRIIFSPVAPKEEHVRRGQLADVCLDTPLCNGHTTGMDVLWAGTPMVTMPGETLASRVAASQLTCLGCLELIAKNRQEYEDIAVKLGTDLEYLKKVRGKVWKQRISSPLFNTKQYTMELERLYLQMWEHYAAGNKPDHMIKPVEVTESA
- localisation_or_trafficking ([1]; control: Mono-OGT): decreases
- localisation_or_trafficking ([2]; glycan lost, control: Mono-OGT): decreases

B2: O-GlcNAc transferase (OGT): OGT S389A (protein)
parent chain: B1 parent chain
- enzymatic_activity [3]: no change

B3: O-GlcNAc transferase (OGT): Thiamet-G (protein)
parent chain: B1 parent chain
- localisation_or_trafficking ([2]; glycan gained, control: untreated cells): increases

B4: O-GlcNAc transferase (OGT): 5-thio-GlcNAc (protein)
parent chain: B1 parent chain
- localisation_or_trafficking ([1]; control: untreated cells): decreases
- localisation_or_trafficking ([2]; glycan lost, control: untreated cells): decreases
